Measured values from the nanobody polyreactivity screen of Harvey et al. (2022).

Experiment: yeast display, Sf9 membrane polyspecificity reagent, FACS + sequencing; frameworks hold sequencing errors
In short: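 Polyreactivity labels are assigned by the sorting gate from which each nanobody was recovered. The gates were low and high (top ~1%), set on anti-HA fluorescence for expression and streptavidin fluorescence for reagent binding. Before sorting, galactose-induced (36–48 hours) yeast display cells were stained for 1 hour at 4 °C with 10% biotinylated, detergent-solubilized Sf9 membrane reagent.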

Row | Sequence | polyreactivity (PSR sort gate)
1 | QVQLVESGGGLVQAGGSLRLSCAASGRIFYAYAMGWYRQAPGKERELVAGITYSGSSTYYADSVKGRFTISRDNAKNTVYLQMNSLKPEDTAVYYCAADLTRVLRYNYWGQGTQVSVSS | low polyreactivity
2 | QVQLVESGGGLVQAGGSLRLSCAASGRIFYAYAMGWYRQAPGKEREMVAAISKGGGSTYYADSVKGRFTISRDNAKNSVYLQMNSLKPEDTAVYYCNAQQYPYHIKYDYWGQGSQVTVSS | low polyreactivity
3 | QVQLVESGGGLVQAGGSLRLSCAASGRIFYAYAMGWYRQEPGKERELVASISGSGGSTYYADSVKGRFTISRDNAKNTVYLQMNRLKPEDTAVYYCAKRYPFYSSGLSTYNYWGQGTQVTVSS | high polyreactivity
4 | QVQLVESGGGLVQAGGSLRLSCAASGRIFYDNVMGWYRQAPGKERDLVAAISRSGGDTYYADSVKVRFTISRDNAKNTVYLQMNSLKPEDTAVYYCAADIYAFSGLYYYWGQGTQVTVSS | high polyreactivity
5 | QVQLVESGGGLVQAGGSLRLSCAASGRIFYDYAMGGSRQAPGKERELVAAISKGGGSTYYADSVKGRFTISRDNAKNTVYLQMYSLKPEDTAVYYCAASSSLTTDTLYDYWGQGTQVTVSS | low polyreactivity
6 | QVQLVESGGGLVQAGGSLRLSCAASGRIFYDYAMGWYRQAPGKEWELVAAISGSGGSTYYADSVKGRFTISRDNAKNTVYLQMNSLKPEDTAVYYCNRYTTRYYPGGDYWGQGTQVTVSS | high polyreactivity
7 | QVQLVESGGGLVQAGGSLRLSCAASGRIFYDYAMGWYRQAPGKQREFVAAIRWRGGSTYYADSVKGRFTISRDNAMNTVYLQMNSLKPEDTAVYYCATKSYYKFGYWGQGSQVTVSS | high polyreactivity
8 | QVQLVESGGGLVQAGGSLRLSCAASGRIFYDYTMGWYRQEPGKERELVAAINSGGGSTYYADSVKGRFTISRDNAKNTVYLQMNSLKPEVSAVYYCNADGQWNIWEYDYWGQGTQVTVSS | high polyreactivity
9 | QVQLVESGGGLVQAGGSLRLSCAASGRIFYEYAMGWYRQAPGKERELVAISTSGGNTYYADSVKGRFTISRDNAKNTVYLQMNSLKPEVTAVYYCAARLQYYPYYYWGQGTQVTVSS | high polyreactivity
10 | QVQLVESGGGLVQAGGSLRLSCAASGRIFYFNAMGWYRQAPGKEWELVAVINSSGSTDYADSVKGRFTISRDNAKNTVYLQMNSLKPEDTAVYYCAAEVTPSGYGYWGQGTQVTVSS | low polyreactivity
11 | QVQLVESGGGLVQAGGSLRLSCAASGRIFYFNAMGWYRQAPGQERELVADISSGGRTNYADSVKGRFTISRDNAKNTVYLQMNSLKPEDTAVYYCNAEPYTSSGGYRGYDFDSWGQGTQVTVSS | low polyreactivity
12 | QVQLVESGGGLVQAGGSLRLSCAASGRIFYFNSMGWYRQAPGKEREFVAAISGSGGDTYYADSVKGRFTISRDIAKNTVYLQMNSLKPEDTAVYYCAAEVYTWGQGTQVTVSS | low polyreactivity
13 | QVQLVESGGGLVQAGGSLRLSCAASGRIFYFNVMGWYRQAPGKVRELVAAIRWSVGTTYYADSVKGRFTISRDNAKNTVYLQMNSLKPEDTAVYYCAARRSFPLGTARMYYWGQGTQVTVSS | high polyreactivity
14 | QVQLVESGGGLVQAGGSLRLSCAASGRIFYFYALGWYRQAPGKERELVAAIDSGGSTYYADSVKGRFTISRDNAKNTVYLQMNSLKPEDTAVYYCNADGFYSWLYDYWGQGTQVTVSS | low polyreactivity
15 | QVQLVESGGGLVQAGGSLRLSCAASGRIFYFYAMGGYRQAPGKERELVAAISRRGGTTNYADSVKGRFTISRDNAKNTVYLQMNSLKPEDTAVYYCAADYQSVGGAEYDYWGQGTQVTVSS | high polyreactivity
16 | QVQLVESGGGLVQAGGSLRLSCAASGRIFYFYAMGLYTQAPGKERELVAVISYGGDRTSYADSVKGRFTISRDNAKNTVYLQMNSLKPEDSAVYYCAARPFYRGYYYWGQGTQVTVSS | high polyreactivity
17 | QVQLVESGGGLVQAGGSLRLSCAASGRIFYFYAMGWSRQAPGKERELVAAITGSAGGTYYADSVKGRFTISRDTAKNTVYLQMNSLKPEDTAVYYCAAKYYGNKRDLYYWGQGTQVTVSS | low polyreactivity
18 | QVQLVESGGGLVQAGGSLRLSCAASGRIFYFYAMGWYRQAPGKERELVAAISTSGGSTYYADSVKGRFTISRDNAKNTVYLQMNSLKPEDTAVYYCAARFRYYGSEYDYWGQGTQVTVAS | low polyreactivity
19 | QVQLVESGGGLVQAGGSLRLSCAASGRIFYFYAMGWYRQAPGKERELVASISSGGITNYADSVKGRFTISRDNAKNTVYLQMNSLKPEDTAVYYCAADYGYYSRLYYWGQGTQVTVSS | low polyreactivity
20 | QVQLVESGGGLVQAGGSLRLSCAASGRIFYFYVMGWYRQAPGKEREFVAAISQSGGSTYYADSVKGRFTISRDNAKNTVYLQMNSLKPEDTAVYYCAADLKAWGRYYYWGQGTQVTVSS | low polyreactivity
21 | QVQLVESGGGLVQAGGSLRLSCAASGRIFYGNAMGWYRQAPGKERELVAAIRRSGGSTYYAESVKGRVTISRDNAKNTVYLQMNSLKPEDTAVYYRNADAFNKISYVWYDYWGQGPQVTVSS | low polyreactivity
22 | QVQLVESGGGLVQAGGSLRLSCAASGRIFYGNAMGWYRQAPGKERELVAAISSGTSTNYADSVKGRFTISRDNAKNTVYLEMNRLKPEDTAVYDCAAGSYSRYLYSLYFDFDYWGQGTQVTVSS | low polyreactivity

Row | Sequence | polyreactivity (PSR sort gate)
23 | QVQLVESGGGLVQAGGSLRLSCAASGRIFYGYAMGWYRQAPGKERDLVAGISYRGARTYYADSVKGRFTISRDNAKNTVYLQMTSLKPEDTAVYYCNAVPYYPFAFGALDYWGQGTQVTVSS | high polyreactivity
24 | QVQLVESGGGLVQAGGSLRLSCAASGRIFYGYAMGWYRQAPGKERELVAAIRTSGGSTYYADSVKGRFTISRDNAKNTVYLQMNSLKPEDTAVYYCNAGIVPRNRYYTPYNYWGQGTQVTVSS | low polyreactivity
25 | QVQLVESGGGLVQAGGSLRLSCAASGRIFYGYAMGWYRQAPGKERELVAAITYSGGITYYADSVKGRFTISRDNAKNTVYLQMNSLKPEDTAVYYCATSKSSVTGPDLDYWGQGTQVTVSS | high polyreactivity
26 | QVQLVESGGGLVQAGGSLRLSCAASGRIFYGYSMGWSRQATGKEWELVAAISSSGGSTYYADSVKGRFTISRDNAKNTVSLQRNSVKPEDTAVYYCNAQRYRPGYWYDYWGQGTQVTVSS | high polyreactivity
27 | QVQLVESGGGLVQAGGSLRLSCAASGRIFYGYTMGWYRQAPGKERELVAAISWSGGSTSYADSVKGRFTISRDNAKNTVYLQMNSLKPEDTAVYYCDVRYPGYRLYWGYTYDYWGQGTQVTVSS | high polyreactivity
28 | QVQLVESGGGLVQAGGSLRLSCAASGRIFYHNVMGWYRQAPGKERELVAGIRSRGGSTSYADSVKGRFTISRDNAKNTVYLQMNSLKPEDTAVYYCATDTTLWYVLYDYWGQGTQVTVSS | low polyreactivity
29 | QVQLVESGGGLVQAGGSLRLSCAASGRIFYINAMGWYRQAPGKERELVAAITEGGVSTYYADSVKGRFTISRDNAMNTVYLQMNSLKPEDTAVYYCNTTGGTDGIVIYEYWGQGTQVTVSS | low polyreactivity
30 | QVQLVESGGGLVQAGGSLRLSCAASGRIFYINAMGWYRQAPGKERELVAAITGGDGSTTYADSVKGRFTISRDNAKNTVYLQMNSLKPEDTAVYYCNAVTARKYAESQFDHWGQGTQVTVSS | low polyreactivity
31 | QVQLVESGGGLVQAGGSLRLSCAASGRIFYIYAMGWSRQAPGKERELVASITSSGTSTYADSVKGRFTISRDNAKNTVYLQMNSLKPEDTAVYYCNARGYPKSWRYSRGYEYWGQGTQVTVSS | low polyreactivity
32 | QVQLVESGGGLVQAGGSLRLSCAASGRIFYKYAMGWYRPAPGKERELVASITRSGTSTDYADSVKGRFTISRDNAKNTVYLQMNSLKPEDTADYYCAKRFFSLNGYGYDYWGLGTQVTVSS | high polyreactivity
33 | QVQLVESGGGLVQAGGSLRLSCAASGRIFYKYAMGWYRQAPGKERELVAAISYSGGSTYYADSMKGRFTLSRDNAKNTVYLQMNSLTPEDTAVYYCATRRREAGIEYDYWGQGTQVTVSS | high polyreactivity
34 | QVQLVESGGGLVQAGGSLRLSCAASGRIFYLKAMGWYRQAPGTERELVAAINTSGDSTYYADSVKGRFTISRDNAKNTVDLQMNSLKPEDTAVSYCAAYVIGPDQFIYDYWGQGTQVTVSS | low polyreactivity
35 | QVQLVESGGGLVQAGGSLRLSCAASGRIFYLNVMGWYRQAPGKERELVAAITRRDVTTYADSVKGRFTISRDNAKNTVYLQMNSLKPEDTAVYYCNAVYYNWIGFDYWGQGTQVSVSS | low polyreactivity
36 | QVQLVESGGGLVQAGGSLRLSCAASGRIFYLYAMGWYRQAPGKERELVAAISRSGGSTYYADSVKGRFTISRDNAKNTVYLQMNSLKPEDTAVYYCNTVWYFSSRTRLHDYWGQGTQVTVSS | high polyreactivity
37 | QVQLVESGGGLVQAGGSLRLSCAASGRIFYLYVMGWYRQAPGKERELVAAISIGSTTNYADSVKGRFTISRDNAKNTVYLQMNSLKPEDTAVYYCNARDGPPFYDYWGQRTQVTVSS | low polyreactivity
38 | QVQLVESGGGLVQAGGSLRLSCAASGRIFYMNAMGWYRQAPGKERELVAGITNSTTGTYYADSVKGRFTISRDNAKNTVYLQMNSLKPEDTAVYYCNTDVAYEEPVETYDYWGQGTQVTVSS | low polyreactivity
39 | QVQLVESGGGLVQAGGSLRLSCAASGRIFYNAMGWYRQAPGKERELVAAITSNGGSTYYADSVKGRFTISRDNAKNTVYLQMNSLKPEDTAVYYCNAAIRYTASATHAFDYWGQGTQVTVSS | low polyreactivity
40 | QVQLVESGGGLVQAGGSLRLSCAASGRIFYNYAMGWYRQAPGKERELVAAISGSGGSTYYADSVKGRFTISRDNAKNSVYLQMNSLKPEDTAVYYCSTSGPQYYSRNFDYWGQGTQVTVSS | low polyreactivity
41 | QVQLVESGGGLVQAGGSLRLSCAASGRIFYNYAMGWYRQAPGKERELVAAITGGASTYADSVKGRFTISRDNAKNTVYLQMNRLKPEDTAVYYCAVDYYTYSLASGRTRMDYWGQGTQVTVSS | high polyreactivity
42 | QVQLVESGGGLVQAGGSLRLSCAASGRIFYNYAMGWYRQAPGKERELVAAITRRAGRTYYADSVKGRFTISRDNAKNTVYLQMNSLKPEDTAVFYCAKDEPGSSRVLYDYWGQVTQVTVSS | low polyreactivity
43 | QVQLVESGGGLVQAGGSLRLSCAASGRIFYNYDMGWYRQAPGKERELVAAITSGGNTYADSVKGRFTISRDNAKNTVYLQMNSLKPEDTAVYYCNARDKFYVPSQYAYDYWGQGTQVTVSS | low polyreactivity
